Test results from paper PMC6007489 (Nucleic Acids Research, 2018).

T1: His–rad1R218A–Rad10 (S. cerevisiae, UniProt P06777 1-1100; P06838 1-210, R218A)
T1 sequence (looked up) 1: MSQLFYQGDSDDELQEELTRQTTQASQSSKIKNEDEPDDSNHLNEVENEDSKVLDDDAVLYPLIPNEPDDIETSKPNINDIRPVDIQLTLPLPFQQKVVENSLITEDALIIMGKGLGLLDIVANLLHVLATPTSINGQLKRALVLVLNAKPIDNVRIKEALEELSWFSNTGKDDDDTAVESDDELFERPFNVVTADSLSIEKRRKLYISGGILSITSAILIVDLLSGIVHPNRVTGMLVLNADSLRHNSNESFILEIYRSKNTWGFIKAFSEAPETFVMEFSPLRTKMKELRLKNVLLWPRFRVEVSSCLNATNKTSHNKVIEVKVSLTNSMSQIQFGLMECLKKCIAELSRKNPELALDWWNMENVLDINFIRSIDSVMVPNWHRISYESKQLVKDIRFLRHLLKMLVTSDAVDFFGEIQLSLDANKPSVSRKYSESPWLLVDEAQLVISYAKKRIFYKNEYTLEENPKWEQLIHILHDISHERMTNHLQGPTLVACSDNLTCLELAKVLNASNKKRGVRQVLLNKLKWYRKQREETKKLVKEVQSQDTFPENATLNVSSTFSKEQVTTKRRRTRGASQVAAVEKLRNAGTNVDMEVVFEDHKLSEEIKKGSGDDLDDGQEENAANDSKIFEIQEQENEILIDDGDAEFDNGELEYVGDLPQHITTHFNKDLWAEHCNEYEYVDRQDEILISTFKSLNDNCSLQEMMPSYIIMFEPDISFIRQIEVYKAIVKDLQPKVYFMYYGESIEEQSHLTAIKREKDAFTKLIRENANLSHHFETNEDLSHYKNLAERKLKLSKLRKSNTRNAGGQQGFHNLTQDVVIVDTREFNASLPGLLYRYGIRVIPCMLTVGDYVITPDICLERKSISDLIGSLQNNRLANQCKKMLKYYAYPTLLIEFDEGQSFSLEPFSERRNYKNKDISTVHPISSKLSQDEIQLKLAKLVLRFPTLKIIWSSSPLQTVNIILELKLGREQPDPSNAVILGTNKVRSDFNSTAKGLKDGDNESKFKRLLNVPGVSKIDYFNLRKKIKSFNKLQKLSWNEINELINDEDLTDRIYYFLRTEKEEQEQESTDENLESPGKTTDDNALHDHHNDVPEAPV
T1 sequence (looked up) 2: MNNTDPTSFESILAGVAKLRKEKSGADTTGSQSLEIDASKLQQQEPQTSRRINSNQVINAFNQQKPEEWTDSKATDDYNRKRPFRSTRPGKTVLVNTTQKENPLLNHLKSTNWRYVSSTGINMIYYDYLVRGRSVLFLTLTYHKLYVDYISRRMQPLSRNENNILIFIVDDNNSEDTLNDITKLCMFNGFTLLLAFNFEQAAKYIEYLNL

B1: Msh2–Msh3 (complex, S. cerevisiae)
chain 1: MSSTRPELKFSDVSEERNFYKKYTGLPKKPLKTIRLVDKGDYYTVIGSDAIFVADSVYHTQSVLKNCQLDPVTAKNFHEPTKYVTVSLQVLATLLKLCLLDLGYKVEIYDKGWKLIKSASPGNIEQVNELMNMNIDSSIIIASLKVQWNSQDGNCIIGVAFIDTTAYKVGMLDIVDNEVYSNLESFLIQLGVKECLVQDLTSNSNSNAEMQKVINVIDRCGCVVTLLKNSEFSEKDVELDLTKLLGDDLALSLPQKYSKLSMGACNALIGYLQLLSEQDQVGKYELVEHKLKEFMKLDASAIKALNLFPQGPQNPFGSNNLAVSGFTSAGNSGKVTSLFQLLNHCKTNAGVRLLNEWLKQPLTNIDEINKRHDLVDYLIDQIELRQMLTSEYLPMIPDIRRLTKKLNKRGNLEDVLKIYQFSKRIPEIVQVFTSFLEDDSPTEPVNELVRSVWLAPLSHHVEPLSKFEEMVETTVDLDAYEENNEFMIKVEFNEELGKIRSKLDTLRDEIHSIHLDSAEDLGFDPDKKLKLENHHLHGWCMRLTRNDAKELRKHKKYIELSTVKAGIFFSTKQLKSIANETNILQKEYDKQQSALVREIINITLTYTPVFEKLSLVLAHLDVIASFAHTSSYAPIPYIRPKLHPMDSERRTHLISSRHPVLEMQDDISFISNDVTLESGKGDFLIITGPNMGGKSTYIRQVGVISLMAQIGCFVPCEEAEIAIVDAILCRVGAGDSQLKGVSTFMVEILETASILKNASKNSLIIVDELGRGTSTYDGFGLAWAIAEHIASKIGCFALFATHFHELTELSEKLPNVKNMHVVAHIEKNLKEQKHDDEDITLLYKVEPGISDQSFGIHVAEVVQFPEKIVKMAKRKANELDDLKTNNEDLKKAKLSLQEVNEGNIRLKALLKEWIRKVKEEGLHDPSKITEEASQHKIQELLRAIANEPEKENDNYLKYIKALLL
chain 2: MAGQPTISRFFKKAVKSELTHKQEQEVAVGNGAGSESICLDTDEEDNLSSVASTTVTNDSFPLKGSVSSKNSKNSEKTSGTSTTFNDIDFAKKLDRIMKRRSDENVEAEDDEEEGEEDFVKKKARKSPTAKLTPLDKQVKDLKMHHRDKVLVIRVGYKYKCFAEDAVTVSRILHIKLVPGKLTIDESNPQDCNHRQFAYCSFPDVRLNVHLERLVHHNLKVAVVEQAETSAIKKHDPGASKSSVFERKISNVFTKATFGVNSTFVLRGKRILGDTNSIWALSRDVHQGKVAKYSLISVNLNNGEVVYDEFEEPNLADEKLQIRIKYLQPIEVLVNTDDLPLHVAKFFKDISCPLIHKQEYDLEDHVVQAIKVMNEKIQLSPSLIRLVSKLYSHMVEYNNEQVMLIPSIYSPFASKIHMLLDPNSLQSLDIFTHDGGKGSLFWLLDHTRTSFGLRMLREWILKPLVDVHQIEERLDAIECITSEINNSIFFESLNQMLNHTPDLLRTLNRIMYGTTSRKEVYFYLKQITSFVDHFKMHQSYLSEHFKSSDGRIGKQSPLLFRLFSELNELLSTTQLPHFLTMINVSAVMEKNSDKQVMDFFNLNNYDCSEGIIKIQRESESVRSQLKEELAEIRKYLKRPYLNFRDEVDYLIEVKNSQIKDLPDDWIKVNNTKMVSRFTTPRTQKLTQKLEYYKDLLIRESELQYKEFLNKITAEYTELRKITLNLAQYDCILSLAATSCNVNYVRPTFVNGQQAIIAKNARNPIIESLDVHYVPNDIMMSPENGKINIITGPNMGGKSSYIRQVALLTIMAQIGSFVPAEEIRLSIFENVLTRIGAHDDIINGDSTFKVEMLDILHILKNCNKRSLLLLDEVGRGTGTHDGIAISYALIKYFSELSDCPLILFTTHFPMLGEIKSPLIRNYHMDYVEEQKTGEDWMSVIFLYKLKKGLTYNSYGMNVAKLARLDKDIINRAFSISEELRKESINEDALKLFSSLKRILKSDNITATDKLAKLLSLDIH

Assays:
Msh2–Msh3 = target: B1; assay: far-Western, overlay or dot blot
His–rad1R218A–Rad10 = target: T1, His–rad1R218A–Rad10; assay: co-IP

fold lower binding than His–Rad1–Rad10 (Msh2–Msh3)	fold enhancement of the interaction by non-specific DNA (His–rad1R218A–Rad10)	Binder
~4 fold		His–rad1R203A,K205A–Rad10 (complex, S. cerevisiae) chain 1: MSQLFYQGDSDDELQEELTRQTTQASQSSKIKNEDEPDDSNHLNEVENEDSKVLDDDAVLYPLIPNEPDDIETSKPNINDIRPVDIQLTLPLPFQQKVVENSLITEDALIIMGKGLGLLDIVANLLHVLATPTSINGQLKRALVLVLNAKPIDNVRIKEALEELSWFSNTGKDDDDTAVESDDELFERPFNVVTADSLSIEKARALYISGGILSITSRILIVDLLSGIVHPNRVTGMLVLNADSLRHNSNESFILEIYRSKNTWGFIKAFSEAPETFVMEFSPLRTKMKELRLKNVLLWPRFRVEVSSCLNATNKTSHNKVIEVKVSLTNSMSQIQFGLMECLKKCIAELSRKNPELALDWWNMENVLDINFIRSIDSVMVPNWHRISYESKQLVKDIRFLRHLLKMLVTSDAVDFFGEIQLSLDANKPSVSRKYSESPWLLVDEAQLVISYAKKRIFYKNEYTLEENPKWEQLIHILHDISHERMTNHLQGPTLVACSDNLTCLELAKVLNASNKKRGVRQVLLNKLKWYRKQREETKKLVKEVQSQDTFPENATLNVSSTFSKEQVTTKRRRTRGASQVAAVEKLRNAGTNVDMEVVFEDHKLSEEIKKGSGDDLDDGQEENAANDSKIFEIQEQENEILIDDGDAEFDNGELEYVGDLPQHITTHFNKDLWAEHCNEYEYVDRQDEILISTFKSLNDNCSLQEMMPSYIIMFEPDISFIRQIEVYKAIVKDLQPKVYFMYYGESIEEQSHLTAIKREKDAFTKLIRENANLSHHFETNEDLSHYKNLAERKLKLSKLRKSNTRNAGGQQGFHNLTQDVVIVDTREFNASLPGLLYRYGIRVIPCMLTVGDYVITPDICLERKSISDLIGSLQNNRLANQCKKMLKYYAYPTLLIEFDEGQSFSLEPFSERRNYKNKDISTVHPISSKLSQDEIQLKLAKLVLRFPTLKIIWSSSPLQTVNIILELKLGREQPDPSNAVILGTNKVRSDFNSTAKGLKDGDNESKFKRLLNVPGVSKIDYFNLRKKIKSFNKLQKLSWNEINELINDEDLTDRIYYFLRTEKEEQEQESTDENLESPGKTTDDNALHDHHNDVPEAPV chain 2: MNNTDPTSFESILAGVAKLRKEKSGADTTGSQSLEIDASKLQQQEPQTSRRINSNQVINAFNQQKPEEWTDSKATDDYNRKRPFRSTRPGKTVLVNTTQKENPLLNHLKSTNWRYVSSTGINMIYYDYLVRGRSVLFLTLTYHKLYVDYISRRMQPLSRNENNILIFIVDDNNSEDTLNDITKLCMFNGFTLLLAFNFEQAAKYIEYLNL
	~2 fold	B1
